# Measurements taken from patent US11053304 (CENTIVAX, dated 2021).
# Changes are numbered by the printed parent chain.
# B1: COVID19_P07_A09 (scFv, V domains shown)
# VH: EVQLVESGGGLVQPGGSLRLSCAASGFTFSSYGVHWVRQAPGKGLEWVAVISHDGKKKYYADSVKGRFTISRDNSKNTLYLQMNSLRAEDTAVYYCVTNVDNSRDYFPHYFHDMDVWGQGTLVTVSS
# VL: not shown
# B2: COVID19_P20_B06 (scFv, V domains shown)
# VH: B1 VH with S30H, S31D, G33A, V34M, I51T, H53Y, K56N, K57T, V100L
# VL: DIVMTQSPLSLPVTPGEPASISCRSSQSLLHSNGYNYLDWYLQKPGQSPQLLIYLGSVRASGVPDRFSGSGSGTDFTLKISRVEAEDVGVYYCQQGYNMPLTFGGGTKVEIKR
# B3: COVID19_P19_B04 (scFv, V domains shown)
# VH: EVQLVESGGGLVQPGGSLRLSCAASGITFNNYAMTWVRQAPGKGLEWVSGISGSGGSTYYADSVKGRFTISRDNSRNTLYLQMNSLRAEDTAVYYCVTQRDNPVDYFPHYFHDMDVWGQGTLVTVSS
# VL: DIVMTQSPLSLPVTPGEPASISCRSSQSLLYSDGDTYLDWYLQKPGQSPQLLIYLGSIRAPGVPDRFSGSGSGTDFTLKISRVEAEDVGVYYCMQALQVPWTFGGGTKVEIKR
# B4: COVID19_P19_H07 (scFv, V domains shown)
# VH: B3 VH with I27F, N30G, N31T, Y32S, M34V, T35S, G50A, R76K, P103S, V104R
# VL: B3 VL with A96G, Q98E, V99T
# B5: COVID19_P19_B08 (scFv, V domains shown)
# VH: EVQLVESGGGLVQPGGSLRLSCAASGFTFSDHYMDWVRQAPGKGLEWVAAIGASGESTYYADSVKGRFTISRDNSKNTLYLQMNSLRAEDTAVYYCVTQRDNSRDYFPLWFHDMDVWGQGTLVTVSS
# VL: B3 VL with A96S, L97I, V99T
# B6: COVID19_P08_C12 (scFv, V domains shown)
# VH: EVQLVESGGGLVQPGGSLRLSCAASGFTFNNYALHWVRQAPGKGLEWVSGVSWNGSRTHYADSVKGRFTISRDNSKNTLYLQMNSLRAEDTAVYYCVTNLDNSRDYFPHYFHDMDVWGQGTLVTVSS
# VL: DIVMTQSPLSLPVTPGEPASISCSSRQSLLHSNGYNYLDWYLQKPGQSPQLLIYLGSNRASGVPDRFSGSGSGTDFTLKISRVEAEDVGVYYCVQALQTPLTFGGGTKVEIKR
# B7: COVID19_P08_D04 (scFv, V domains shown)
# VH: EVQLVESGGGLVQPGGSLRLSCAASGFIFSSYAMNWVRQAPGKGLEWVSGISGSGGGAYYADSVKGRFTISRDNSKNTLYLQMNSLRAEDTAVYYCVTNLDNSRDYFPHYFHDMDVWGQGTLVTVSS
# VL: DIVMTQSPLSLPVTPGEPASISCRSSQSLLQSNGYNYMDWYLQKPGQSPQLLIYLTSNRAAGVPDRFSGSGSGTDFTLKISRVEAEDVGVYYCQQSYGPPLTFGGGTKVEIKR
# B8: COVID19_P20_C11 (scFv, V domains shown)
# VH: B7 VH with I28T, A33S, G56D, G57R, A58T, V97S, T98M, N99Q, L100R
# VL: B3 VL with A96S, L97V, V99T
# B9: COVID19_P08_D09 (scFv, V domains shown)
# VH: B1 VH with S31T, G33A, V34M, H53Y, K56N, K57Y, K58Q, V100L
# VL: not shown
# B10: COVID19_P07_H01 (scFv, V domains shown)
# VH: B1 VH with S30R, G33A, V34M, H53S, K56R, K57N, Y59F, V100M
# VL: B7 VL with Q31H, Y35N, T56A, N58Q, A61S, Q94M, S96A, Y97L, G98Q, P99R
# B11: COVID19_P08_C08 (scFv, V domains shown)
# VH: B7 VH with I28T, S30R, S31N, N35H, G50A, I51V, G53S, G57S, A58P, L100M
# VL: DIVMTQSPLSLPVTPGEPASISCRSSQSLVHSDGDNYLNWYLQKPGQSPQLLIYSGSYRASGVPDRFSGSGSGTDFTLKISRVEAEDVGVYYCMQGTHWPLTFGGGTKVEIKR
# B12: COVID19_P07_F10 (scFv, V domains shown)
# VH: B7 VH with I28T, A33G, N35H, I51V, G53A, A58P, L100M
# VL: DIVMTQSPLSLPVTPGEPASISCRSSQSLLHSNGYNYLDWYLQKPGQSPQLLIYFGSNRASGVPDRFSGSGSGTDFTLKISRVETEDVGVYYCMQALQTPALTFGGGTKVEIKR
# B13: COVID19_P08_G07 (scFv, V domains shown)
# VH: EVQLVESGGGLVQPGGSLRLSCAASGFTFSTYGMHWVRQAPGKGLEWVSTISGNGVSTSYADSVKGRFTISRDNSKNTLYLQMNSLRAEDTAVYYCVTNMDNSRDYFPHYFHDMDVWGQGTLVTVSS
# VL: DIVMTQSPLSLPVTPGEPASISCRSSQSLVYSDGYTYLNWYLQKPGQSPQLLIYQVSNRASGVPDRFSGSGSGTDFTLKISRVEAEDVGVYYCMQALQTPALTFGGGTKVEIKR
# Biological target: T1, SARS-CoV-2 Receptor Binding Domain (RBD) protein (SARS-CoV-2, UniProt P0DTC2 319-541)
# Test: SPR, scFv captured via anti-V5, RBD as analyte
row,Binder,Kd
1,B1,< 50 nM
2,B2,< 50 nM
3,B3,< 50 nM
4,B4,< 50 nM
5,B5,< 50 nM
6,B6,< 50 nM
7,B7,< 50 nM
8,B8,< 50 nM
9,B9,< 50 nM
10,B10,< 50 nM
11,B11,< 50 nM
12,B12,< 50 nM
13,B13,< 50 nM

# Biological target: SARS-CoV-1 Receptor Binding Domain (RBD) protein (SARS-CoV-1, UniProt P59594 306-527)
# Test: SPR, scFv captured via anti-V5, RBD as analyte
row,Binder,binding result
1,B1,no binding (tested: up to 300 nM)
2,B2,no binding (tested: up to 300 nM)
3,B3,no binding (tested: up to 300 nM)
4,B4,no binding (tested: up to 300 nM)
5,B5,no binding (tested: up to 300 nM)
6,B6,no binding (tested: up to 300 nM)
7,B7,no binding (tested: up to 300 nM)
8,B8,no binding (tested: up to 300 nM)
9,B9,no binding (tested: up to 300 nM)
10,B10,no binding (tested: up to 300 nM)
11,B11,no binding (tested: up to 300 nM)
12,B12,no binding (tested: up to 300 nM)
13,B13,no binding (tested: up to 300 nM)

# Biological target: MERS Receptor Binding Domain (RBD) protein (MERS coronavirus, UniProt K9N5Q8 367-606)
# Test: SPR, scFv captured via anti-V5, RBD as analyte
row,Binder,binding result
1,B1,no binding (tested: up to 300 nM)
2,B2,no binding (tested: up to 300 nM)
3,B3,no binding (tested: up to 300 nM)
4,B4,no binding (tested: up to 300 nM)
5,B5,no binding (tested: up to 300 nM)
6,B6,no binding (tested: up to 300 nM)
7,B7,no binding (tested: up to 300 nM)
8,B8,no binding (tested: up to 300 nM)
9,B9,no binding (tested: up to 300 nM)
10,B10,no binding (tested: up to 300 nM)
11,B11,no binding (tested: up to 300 nM)
12,B12,no binding (tested: up to 300 nM)
13,B13,no binding (tested: up to 300 nM)

# Biological target: T1, SARS-CoV-2 Receptor Binding Domain …
# Test: SPR, scFv captured via anti-V5, RBD as analyte
# Remark: another data set of the same source
Binder,Kd,koff,kon
B1,1.5 nM,5.7e-05 s⁻¹,39100 M⁻¹ s⁻¹
B2,5.1 nM,0.000439 s⁻¹,86000 M⁻¹ s⁻¹
B3,22 nM,0.00795 s⁻¹,361000 M⁻¹ s⁻¹
B4,37 nM,0.00786 s⁻¹,212000 M⁻¹ s⁻¹
B5,32.7 nM,0.00685 s⁻¹,209000 M⁻¹ s⁻¹
B6,1.1 nM,5.7e-05 s⁻¹,53000 M⁻¹ s⁻¹
B7,0.86 nM,5.7e-05 s⁻¹,66000 M⁻¹ s⁻¹
B8,2.94 nM,0.000607 s⁻¹,207000 M⁻¹ s⁻¹
B9,1.5 nM,5.7e-05 s⁻¹,38000 M⁻¹ s⁻¹
B10,2.9 nM,5.7e-05 s⁻¹,19900 M⁻¹ s⁻¹
B11,1.8 nM,5.7e-05 s⁻¹,32000 M⁻¹ s⁻¹
B12,8.05 nM,0.000483 s⁻¹,60000 M⁻¹ s⁻¹
B13,10.6 nM,0.00072 s⁻¹,68000 M⁻¹ s⁻¹
